± gives the standard deviation.
Experiment: protein stability index of a GFP-peptide fusion (GPS, HEK-293T) (PSI 1-6); higher = more stable
[1] = treatment: DMSO, c terminus: a fixed tail appended
[2] = treatment: MLN4924 1 uM, 8 h, c terminus: a fixed tail appended
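Further: 24-mer peptide tiles fused after GFP, lentivirally expressed, FACS-sorted into six equal bins by GFP/DsRed ratio, decoded by Illumina sequencing, PSI is the read-weighted mean bin number.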

Sequence | protein stability index [1] | protein stability index [2] | protein stability index (treatment: DMSO, c terminus: native) | protein stability index (treatment: MLN4924 1 uM, 8 h, c terminus: native)
FSPTPPQQFQPAGTDQVCVLEWGA [FCHSD1] | 2.49 ± 0.27 | 2.86 ± 0.35 | – | –
SITSKPATLTTTSATSKLIHPDED [ZNF207] | 5.31 ± 0.26 | 5.44 ± 0.28 | – | –
GTADGADLRTVDPETQARLEALLE [ANKRD17] | 4.42 ± 0.15 | 4.5 ± 0.21 | – | –
ELTLARTDLEMQIEGLKEELAYLR [KRT16] | 2.95 ± 0.61 | 2.79 ± 0.44 | – | –
LKNPFFRYTGTTPSPPPGSHYTSP [CARM1] | 2.9 ± 0.16 | 3.16 ± 0.25 | – | –
FQTRQEMTSMSAELKMRAIQAEER [LRRC45] | 4.12 ± 0.29 | 4.48 ± 0.22 | – | –
QARAELTAQHQRRLAAIAQEKDQE [FBF1] | 5.43 ± 0.23 | 5.2 ± 0.49 | – | –
RHCPLPQATFWGLVTPRSWSCHT [SOAT2] | – | – | 2.55 ± 0.64 | 2.44 ± 0.62
RLAQVKRKILVLDLDETLIHSHHD [CTDNEP1] | 2.41 ± 0.73 | 2.58 ± 0.36 | – | –
AKADTTSTVTPVPGQEKGSALEGR [EHMT1] | 5.3 ± 0.24 | 5.38 ± 0.12 | – | –
SPRGPAPGEEKFENLEGVPSVCSE [ZNF263] | 5.41 ± 0.39 | 5.44 ± 0.29 | – | –
NVSTKEGIHLALVELLKNLTKYPT [INTS4] | 2.53 ± 0.36 | 2.5 ± 0.25 | – | –
LPVLRGFPAKYIYDPWNAPEGIQK [CRY1] | 2.39 ± 0.17 | 2.28 ± 0.34 | – | –
RIQIWFQNRRAKLKRSHRESQFLM [HESX1] | 2.43 ± 0.76 | 2.15 ± 0.67 | – | –
MKCQSYCEPPSYRPMHHEDFKEDL [CDC25A] | 3.77 ± 0.16 | 4.02 ± 0.23 | – | –
ELRRQAPPPPPPSRGGPPPPPPPP [WASL] | 4.49 ± 0.44 | 4.64 ± 0.09 | – | –
SDSGLSLDSSHSPSSLSSSEGSSS [NFE2L1] | 5.41 ± 0.23 | 5.34 ± 0.17 | – | –
EANGLLPDDKLTLFCEVSVVQDSV [SPOPL] | 2.88 ± 0.49 | 3.03 ± 0.66 | – | –
TYEKLSRAMRYYYKREILERVDGR [ELF3] | 2.21 ± 0.4 | 2.26 ± 0.37 | – | –
YVQWSLPFIVFGATGLTSGLLSLL [SLC22A15] | 3.27 ± 0.45 | 2.94 ± 0.68 | – | –
EPLFEAGDATLASDLQDWASVGAF [FOXJ1] | 3.85 ± 0.14 | 3.92 ± 0.4 | – | –
KSKTRSLLKRMESLKLKSSHHSKH [DLC1] | 3.48 ± 0.14 | 3.53 ± 0.16 | – | –
RDRQQAPGLGQESKAPGSCDPGTD [TLE6] | 5.45 ± 0.12 | 5.46 ± 0.16 | – | –

Sequence | protein stability index [1] | protein stability index [2] | protein stability index (treatment: DMSO, c terminus: native) | protein stability index (treatment: MLN4924 1 uM, 8 h, c terminus: native)
LLAEREQEEAIAQFPYVEFTGRDS [TMEM106C] | 4.6 ± 0.27 | 4.72 ± 0.13 | – | –
RLVSSPCCIVTSTYGWTANMERIM [HSP90AB1] | 2.86 ± 0.68 | 2.35 ± 0.33 | – | –
AVGNSSGSGQNEESPRKRKKATEA [FBXO28] | 4.95 ± 0.34 | 5.29 ± 0.27 | – | –
RCYYYEDTISTIKSVAWEGGACPA [NCF4] | 2.31 ± 0.21 | 2.43 ± 0.24 | – | –
GGSAVCASRVKLQHLPAQEQWDRL [PLEKHN1] | 3.08 ± 0.43 | 3.06 ± 0.29 | – | –
NVCSLLAQTPLHVAAETGHTSTAR [RIPK4] | 3.67 ± 0.26 | 3.47 ± 0.27 | – | –
AVADSIPQVLADLGSFESPANSET [PCDHGA10] | 5.07 ± 0.54 | 5.35 ± 0.2 | – | –
VAMLGVFLVSAVAHEYIFCFVLGF [SOAT2] | 3.21 ± 0.36 | 3.14 ± 0.5 | – | –
ELHIHRLRYLSSIWNILDLVVILL [PKD2L1] | 2.28 ± 0.33 | 2.54 ± 0.28 | – | –
TFWKEDKAFWKEDNALWERDRNLL [CCDC70] | 2.95 ± 0.12 | 3.2 ± 0.43 | – | –
KMLGNPSRLPAKCPGKGAWSIPWK [FKBP8] | 2.08 ± 0.26 | 2.25 ± 0.23 | – | –
GAFPPRGPRPVQSVVPEMEESGAQ [CDK4] | 5.22 ± 0.32 | 5.23 ± 0.18 | – | –
LKSISAEEILTLFCGAPPVTPIIV [PHTF1] | 3.16 ± 0.29 | 2.62 ± 0.53 | – | –
ADISMIGQFGVGFYSAYLVAEKVV [HSP90AB1] | – | 2.86 ± 0.44 | – | –
SRETQRTPMNHQKAVNDETCKASH [FBXO34] | 5.06 ± 0.09 | 5.17 ± 0.19 | – | –
KLTDFGFAKKLVDRTWTLCGTPEY [PRKX] | 2.12 ± 0.11 | 2.27 ± 0.23 | – | –
MQGAYCTFPASVLAPVPTHSTVSE [DUSP5] | 3.47 ± 0.2 | 3.61 ± 0.17 | – | –
RREEEERRRIEEERLRLEQQKQQI [ACBD3] | 5.35 ± 0.19 | 5.05 ± 0.41 | – | –
LSLEEELSRVKAAALSERGQAEEE [LRRC45] | 5.45 ± 0.2 | 5.37 ± 0.16 | – | –
MPPKFKRHLNDDDVTGSVKSERRN [VAMP4] | 4.79 ± 0.27 | 4.84 ± 0.18 | – | –
PRIVEMKKGSNGYGFYLRAGSEQK [PDZK1] | 3.53 ± 0.36 | 3.65 ± 0.54 | – | –
TSFIRGPNPSKVLQQLLVLQPEQQ [CDS1] | 3.37 ± 0.19 | 3.3 ± 0.095 | – | –
SPFTNLLNGSSQPTTRNYPELNNN [CDC14A] | 4.04 ± 0.1 | 4.26 ± 0.16 | – | –

Sequence | protein stability index [1] | protein stability index [2] | protein stability index (treatment: DMSO, c terminus: native) | protein stability index (treatment: MLN4924 1 uM, 8 h, c terminus: native)
IAGNKCDLIDVREVMERDAKDYAD [RAB22A] | 4.98 ± 0.22 | 5.06 ± 0.11 | – | –
KLGLGIDEDEVAAEEPNAAVPDEI [HSP90AB1] | 5.8 ± 0.18 | 5.48 ± 0.24 | – | –
PLSPAFFGEDGIFRHDRLRFRDFV [PBXIP1] | 2.77 ± 0.16 | 2.91 ± 0.39 | – | –
LAYGSVITVKNLRMAIGYLHSHRH [POMT2] | 2.53 ± 0.69 | 2.63 ± 0.65 | – | –
VGSGGATSGKLLLEADELCDDGGD [ZBTB22] | 5.56 ± 0.22 | 5.55 ± 0.22 | – | –
RSRGKVLKTKDGKLPFCAMGVSSV [CPOX] | 3.4 ± 0.2 | 3.15 ± 0.41 | – | –
TSDSEGAHVNTLHSGTKRDPKEDV [PHTF1] | 5.51 ± 0.22 | 5.54 ± 0.21 | – | –
YKMFASRRKQRYWPFSMDCTGTEA [LOXL2] | 2.3 ± 0.27 | 2.15 ± 0.33 | – | –
VTGETRVLSSTTLLPRQPLPLGIK [PALM] | 3.66 ± 0.35 | 3.63 ± 0.22 | – | –
YNRGEHPIFVNSPTLDAPGGRALV [SMAD6] | 3.13 ± 0.35 | 3.25 ± 0.34 | – | –
TGNPKSEEPEVPDQEGLQRITGLS [SPNS1] | 5.35 ± 0.26 | 5.41 ± 0.16 | – | –
NARGMGIRSPRPASVATWAIFVHR [CTBP1-DT] | 2.16 ± 0.48 | 2.15 ± 0.37 | – | –
EDGRPSLGSPYGQPPRFPVPHNGS [PDLIM4] | 4.8 ± 0.17 | 4.63 ± 0.26 | – | –
KGKYNISSEDYRQLELVILQSEPH [KCNK9] | 2.87 ± 0.28 | 2.93 ± 0.29 | – | –
SMPRINHGVLSAEGFLFVFGGQDE [GAN] | 3.05 ± 0.41 | 2.88 ± 0.72 | – | –
VNQYVIRPGPSASAASSAAAGEPL [RNF208] | 3.88 ± 0.22 | 3.96 ± 0.23 | – | –
GIETLESVPIIGGFWETIFGNRIK [PHTF1] | 2.67 ± 0.41 | 2.81 ± 0.18 | – | –
SDGSCKTAGEMVFVYENAKEGARN [BTBD10] | 4.31 ± 0.18 | 4.48 ± 0.16 | – | –
EHLDNLRLNLTNTKQNFFSQTPIL [INTS3] | 2.35 ± 0.28 | 2.48 ± 0.32 | – | –
AHKMKFSDLFSLAEEYEDSSTKPP [INTS3] | 4.22 ± 0.17 | 4.17 ± 0.1 | – | –
SEFHPHHCNLFVYSSSKGSLRLCD [PPP2R2C] | 2.23 ± 0.16 | 2.27 ± 0.26 | – | –
SLRSYLKRRGPQRSVDVVVSSVFL [PHTF1] | 2.48 ± 0.32 | 2.09 ± 0.24 | – | –
EFPYRMNHILECEFYLLELMDCCL [CCNC] | 2.68 ± 0.31 | 2.84 ± 0.6 | – | –

Sequence | protein stability index [1] | protein stability index [2] | protein stability index (treatment: DMSO, c terminus: native) | protein stability index (treatment: MLN4924 1 uM, 8 h, c terminus: native)
KDIAHFWELGGGTSLLDLISIPIT [DYNC2LI1] | 2.54 ± 0.54 | 2.07 ± 0.24 | – | –
AARVGLLQYSTQVHTEFTLRNFNS [MATN2] | 2.37 ± 0.19 | 2.19 ± 0.28 | – | –
EPITGWRKTVCHNGVLGLSRLLFF [LPCAT4] | 2.57 ± 0.71 | 2.2 ± 0.37 | – | –
SDLPTPQAIEPQAIVQQVPAPSRM [SNX8] | 5.21 ± 0.11 | 5.13 ± 0.19 | – | –
FEEFVHYLQDHEKKLRLVFKSLDK [SLC25A25] | 2.18 ± 0.27 | 2.51 ± 0.31 | – | –
EGSGHSTGEDSAFQEPDSPLPPAR [WEE1] | 5.48 ± 0.14 | 5.52 ± 0.13 | – | –
FLAAEQDIREEIRKVVQSLEQTAR [TSN] | 2.57 ± 0.45 | 3.25 ± 0.64 | – | –
VKNDRDRVGHKSIPMRNLRARPAK [SERPINB5] | 3.98 ± 0.35 | 4.4 ± 0.11 | – | –
DLDSRTDSDIPEIPPSSDRTPEIL [CDS1] | 5.42 ± 0.21 | 5.51 ± 0.21 | – | –
GFEYDGKINAWDLYYYMTQTEELK [NLN] | 2.81 ± 0.035 | 2.49 ± 0.39 | – | –
VEQPKGTEVVRDAVRKLKFARHIK [GULP1] | 3.7 ± 0.11 | 3.77 ± 0.16 | – | –
TGERPHQCIECGKSFNRHCNLIRH [ZSCAN9] | 3.13 ± 0.17 | 3.35 ± 0.38 | – | –
RLDYLNLKGARLTVEQGCQILDSL [FBXO39] | 3.25 ± 0.088 | 3.54 ± 0.22 | – | –
PANVDASVMYRKWKESKGKDREYT [CDC34] | 4.16 ± 0.33 | 4.21 ± 0.13 | – | –
FEDLNKRKDTKEIYTHFTCATDTK [GNAI1] | 4.57 ± 0.16 | 4.41 ± 0.42 | – | –
PPVMPGMPPGLHHQRKYTQSFCGE [ZNF207] | 3.76 ± 0.15 | 3.75 ± 0.14 | – | –
PDSELSPCIPPGFRNLVADRVLNY [SPAG8] | 3.18 ± 0.23 | 3.34 ± 0.33 | – | –
VSLVTAELSKDAQASAAPAAPLPE [SLC29A1] | 4.44 ± 0.18 | 4.47 ± 0.16 | – | –
LLAPEAGSHPQQTQKLEEIKENAQ [TOR1AIP2] | 5.44 ± 0.097 | 5.47 ± 0.25 | – | –
RTLSAFLCLGGLACLIVMFLPEKK [SLC22A15] | 3.25 ± 0.42 | 2.64 ± 0.36 | – | –
